The source of these data is patent US7452965B2, “Colon tumor specific binding peptides” (University of Utah Research Foundation, priority 2002, dated 2008).

Series [1] deals with HT29 cells. Put plainly: Protease assay: RPM phage binding to protease-treated cells. Conditions: 37° C. The procedure:
HT29 cells were incubated at 37° C. with either active or boiled Collagenase diluted 1:20 for 10 minutes, Trypsin-EDTA 0.25% (Gibco) for 5 minutes or Proteinase K (Gibco) diluted 1:600 for 1 minute. After incubation, cells were then incubated with RPM bearing phage as described above. The number of phage remaining bound was quantified by real time PCR.
(§1) In order to further this observation, HT29 cells were treated with active or boiled proteases to determine the effect of treatment on the ability of an RPM displaying phage to bind. HT29 cells were treated with active or boiled collagenase for 15 minutes, trypsin for 5 minutes, or proteinase K for 0.5 minutes at 37° C. After protease treatment, cells were washed, then an equal number of phage were added and allowed to bind. […] The decrease in phage binding to the HT29 cells was due to the protease activity since boiling the proteases abolished the effect with phage binding returning to levels of that observed for PBS treated cells (FIG. 6B). […] After treating HT29 cells with proteases as described above, MTT was added to the cells and incubated for 45 minutes at 37° C. After incubation, the cells were solubilized with 0.1N HCl in isopropanol and the absorbance due to MTT incorporation was determined.

For series [2], the system named is HT29 cells. Briefly: MTT viability of protease-treated cells. It is filed as cell-based. To be noted: MTT 45 minutes at 37° C. after protease treatment. The procedure:
as §1

B1: proteinase K: protease used to treat HT29 cells (protein, UniProt P06873 106-384, looked up)
Proteinase K: AAQTNAPWGLARISSTSPGTSTYYYDESAGQGSCVYVIDTGIEASHPEFEGRAQMVKTYYYSSRDGNGHGTHCAGTVGSRTYGVAKKTQLFGVKVLDDNGSGQYSTIIAGMDFVASDKNNRNCPKGVVASLSLGGGYSSSVNSAAARLQSSGVMVAVAAGNNNADARNYSPASEPSVCTVGASDRYDRRSSFSNYGSVLDIFGPGTSILSTWIGGSTRSISGTSMATPHVAGLAAYLMTLGKTTAASACRYIADTANKGDLSNIPFGTVNLLAYNNYQA
Regarding B1, the “decrease of RPM phage binding to active protease treated HT29 cells” value in the series on HT29 cells [1] is on record as 90%. Also, the “average absorbance (MTT incorporation) of treated cells” value in the series on HT29 cells [2] worked out at 0.183.
